Results reported in the supplement of paper PMC9170038.

System: MS2 coat protein
Assay: apparent KD of MS2 coat protein; higher = weaker reporter binding
Details: Eterna round: R107
In short: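 Apparent KD is reported per design as the median of normalised binding-curve fits across its clusters. The RNA switches were made by on-chip transcription from Illumina sequencing clusters. SNAP-549-labelled MS2 coat protein was then added in twofold steps (0.7 or 1.5 nM to 3 µM; 0.8–1.5 h to 10–20 min per step) in 100 mM Tris-HCl pH 7.5, 80 mM KCl, 4 mM MgCl2, without or with constant ligand.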

[1] = input ligand: theophylline 20 uM
[2] = input ligand: tryptophan 2.4 mM
[3] = input ligand: theophylline 2 mM

Sequence | apparent KD of MS2 coat protein (input ligand: arginine 13.2 mM) | apparent KD of MS2 coat protein [1] | apparent KD of MS2 coat protein [2] | apparent KD of MS2 coat protein (input ligand: none) | apparent KD of MS2 coat protein [3]
UGUAACAUGAGGAUCACCCAUGUAAGUGAUACCAGAUAAGUAGUAGUCCCUUGGCAGCAUAUUGGGAAAGUGUAUAGUCUAUACG [Same State - Theophylline A (Freestyle 5)] | 50 nM | 75.3 nM | 46.4 nM |  | 
UGUAACAUGAGGAUCACCCAUGUAAGUGAUACCAGAUAAGUAGUAGUCCCUUGGCAGCAUAUUGGGAAAGUGUAUAGUCUAUAUU [Same State - Theophylline A (Freestyle 3)] | 43.6 nM | 74.9 nM | 51.1 nM |  | 
UGUAACAUGAGGAUCACCCAUGUAAGUGAUACCAGAUAAGUAGUAGUCCCUUGGCAGCAUAUUGGGAAAGUGUAUAGUGUAUAUG [Same State - Theophylline A (Freestyle 4)] | 48.9 nM | 72.3 nM | 58.4 nM |  | 
UGUAACAUGAGGAUCACCCAUGUGAGUGAUACCAGACUAGUGUUAGUCCCUUGGCAGCACGCUGGACAAAUGUGUAGUCUAUGCG [Same State - Theophylline A (Freestyle 20)] | 40.2 nM | 112 nM | 70.5 nM | 72.7 nM | 62.6 nM
UGUACCAUGUCGGCCGCCACUCAUGAUAAACAUGAGGAUCACCCAUGUGGCGUCAAAGACGCUAUGAGGACCGGGACAUGGUACU [TryBS Zipper 3 #StaticStem #Zipper] | 15.3 nM | 19.9 nM |  |  | 15.7 nM
UGUAUGGACUGAAGGAGCGGGUAAUAAAUCUGAGGAUCACCCAGGUAAUAGGCGAAAGCCACCCAGGUAGGUCGCAGUCCAUACU | 17.7 nM | 25.1 nM | 19.4 nM | 19 nM | 19.3 nM
UGUAUGUGAAGUGAUACCAGUCCAUAAACUGGAACAUGAGGAUCACCCAUGUAAUGGGUGGACCCUUGGCAGCACUUCUCAUACU [First try] | 48 nM | 468 nM | 190 nM |  | 
UGUAUGUGAUCUGAUACCAGAGUUGAUAACCUGAGGAUCACCCUGGUAAAGGCGAAAGCCCUCCCUUGGCAGCAGAUCGCAUACU | 121 nM | 207 nM | 239 nM | 216 nM | 34.6 nM
UGUAUGUGAUCUGAUACCAGCGUUGAUAACCUGAGGAUCACCCUGGUAAGGCGAAAGCCGCGCCCUUGGCAGCAGAUCGCAUACU | 169 nM | 83.9 nM | 260 nM | 237 nM | 23.3 nM
UGUAUGUGAUCUGAUACCAGCUAAUAAAGCUUGAGGAUCACCCAAGUGGAGCGGAAACGCAGCCCUUGGCAGCAGAUCGCAUACU [Denovo 8 #StaticStem #AlternativeMS2] | 189 nM | 103 nM | 224 nM | 169 nM | 9.93 nM
UGUAUGUGAUCUGAUACCAGCUAGCGGAAACGCAGCUUGAGGAUCACCCAAGUGGAAAUAAGCCCUUGGCAGCAGAUCGCAUACU [Denovo 6 #StaticStem #AlternativeMS2] | 99.7 nM | 139 nM | 309 nM | 246 nM | 11.9 nM
UGUAUGUGAUCUGAUACCAGCUUAAUAGCUUGAGGAUCACCCAAGUGGAGCGGAAACGCUAGCCCUUGGCAGCAGAUCGCAUACU [Denovo 10 #StaticStem #AlternativeMS2] | 104 nM | 104 nM | 198 nM | 198 nM | 11.9 nM
UGUAUGUGAUCUGAUACCAGUCCAACUGGUAAAACAAGAGGAUCACCCUUGUAAAAUUGGGACCCUUGGCAGCAGAUCGCAUACU | 251 nM | 409 nM | 733 nM | 472 nM | 29.8 nM
UGUAUGUGAUCUGAUACCAGUCCAACUGGUAAAACCUGAGGAUCACCCAGGUAAAAUUGGGACCCUUGGCAGCAGAUCGCAUACU | 134 nM | 130 nM | 177 nM | 183 nM | 16.1 nM
UGUAUGUGAUUUGAUACCAGACCAGCUGGUGGUACCUGAGGAUCACCCAGGUAGGUUUGGGUCCCUUGGCAGCAAAUCGCAUACU [SS Theo B #24 Ms6] | 22 nM | 23.8 nM | 21.2 nM | 20.6 nM | 11.4 nM
UGUAUGUGAUUUGAUACCAGACCAGCUGGUGGUACCUGAGGAUCACCCGGGUAGGUUUGGGUCCCUUGGCAGCAAAUCGCAUACU [SS Theo B #24 Ms8] | 48.6 nM | 52.1 nM | 48.6 nM | 48.6 nM | 31.5 nM
UGUAUGUGAUUUGAUACCAGACCAGCUGGUGGUACUUGAGGAUCACCCAAGUAGGUUUGGGUCCCUUGGCAGCAAAUCGCAUACU [SS Theo B #24 Ms10] | 165 nM | 142 nM | 198 nM | 163 nM | 30.8 nM
UGUAUGUGAUUUGAUACCAGACCAGCUGGUGGUAUCUGAGGAUCACCCAGGUAGGUUUGGGUCCCUUGGCAGCAAAUCGCAUACU [SS Theo B #24 Ms15] | 145 nM | 892 nM | 1720 nM | 186 nM | 335 nM
UGUAUGUGAUUUGAUACCAGACCAGCUGGUGUUCCAUGAGGAUCACCCAUGGAGGUUUGGGUCCCUUGGCAGCAAAUCGCAUACU [SS Theo B #24 Ms16] | 33.2 nM | 34 nM | 30.3 nM | 25.2 nM | 23.2 nM
UGUAUGUGAUUUGAUACCAGUUCUGCUGGUAAAACAUGAGGAUCACCCAUGUUACUUUGGGACCCUUGGCAGCAAAUCGCAUACU [SSTheo B #27] | 90 nM | 119 nM | 202 nM |  | 

Sequence | apparent KD of MS2 coat protein (input ligand: arginine 13.2 mM) | apparent KD of MS2 coat protein [1] | apparent KD of MS2 coat protein [2] | apparent KD of MS2 coat protein (input ligand: none) | apparent KD of MS2 coat protein [3]
UGUCAGCGAAAGUUGACAUGUCUUACCGGUCGAGGACCGGUACGGCCGCCACUCGAUCUCUCGCACAUGAGGAUCACCCAUGUUG [SS Tryp A #22] | 19.3 nM | 29 nM |  |  | 26.5 nM
UGUCGGCCGCCAGGAAAUGGUGGCCGACAUCGAGGACCGGUACGGCCGCCACUCGGUCGUACAUGAGGAUCACCCAUGUCGGUGA [SameState-Tryptophan_A Attempt #10 (HarryS)] | 72.9 nM | 508 nM | 1200 nM | 496 nM | 942 nM
UGUGCAGGAUGCGUAAAGGGUCUUGCGCAUCGAGGACCGGUACGGCCGCCACUCGGCUGUACAUGAGGAUCACCCAUGUCAGGGU [#1 Same State - Tryptophan A Attempt #19 (HarryS)] | 87.1 nM | 445 nM | 533 nM | 477 nM | 1830 nM
UGUGUCGUCUGAAGGAGCGGCCCUUGAUCCUCGUGAGACAUGAGGAUCACCCAUGUCUCGGGCCAGGUAGGUCGCAGGCGGCACA [#25 Exclusion - Arginine B] | 11.5 nM | 17.2 nM | 12.6 nM | 11.9 nM | 12.8 nM
UGUUUUAAAAGUGAUACCAGACAAACAUGAGGAUCACCCAUGUAACAUGAGAGAUAAUAAGUCCCUUGGCAGCACAUAAUUAGUA [JR_Nu_SSTheophyB_Sub028] | 27 nM | 33.1 nM | 31.5 nM |  | 
UGUUUUGUGAUGGAUACCAGCAGAGAAAACGUUUAUCCUAACAUGAGGAUCACCCAUGUAUGCCCUUGGCAGCUGUUGUGGGAUA [8.R] | 27.2 nM | 43.9 nM | 27.9 nM |  | 
UUAAUCAAAUUAGAAAACUAAUUUGCAGAAGGAGCGUGAUAAAACACAGGUAGGUCGCUGAAGGGAACAUGAGGAUCACCCAUGU [AstrosSSArgA#11] | 26.7 nM | 35.7 nM | 25.7 nM | 26 nM | 29.5 nM
UUAAUCAUAUAAGAAAACUUAUAUGCAGAAGGAGCGUGAUAAAACACAGGUAGGUCGCUGAAGGGAACAUGAGGAUCACCCAUGU [AstrosSSArgA#7] | 28 nM | 36.2 nM | 28.8 nM | 23.4 nM | 32.4 nM
UUAAUCAUGUUAGAAAACUAAUAUGCAGAAGGAGCGUGAUAAAACACAGGUAGGUCGCUGAAGGGAACAUGAGGAUCACCCAUGU [AstrosSSArgA#9] | 42.8 nM | 43.6 nM | 34.8 nM | 37 nM | 37.3 nM
UUAAUUAUAUAUUAUAUAAUAUAUACAGAAGGAGCGUGAUAAAACACAGGUAGGUCGCUGAAGGGAACAUGAGGAUCACCCAUGU [AstrosSSArgA#1] | 26.9 nM | 38.5 nM | 30 nM | 25.6 nM | 48.6 nM
UUACAUGAGGAUCACCCAUGUCAUAACGAUACCAGAUAGUUAAUGAUCCCUUGGCAGCGUAAUACCUAGACAUUUAAGUCAUAGG [#25 SameState-TheophyllineA] | 35.3 nM | 63.2 nM | 50.9 nM |  | 
UUACGAGGCUAUCCACUUUGAUUUUGUGAUACCAGAAUAAUUUUAUUCCCUUGGCAGCAUGACAUGAGGAUCACCCAUGUGUCUU [SSTheo A #4] | 34.3 nM | 47.4 nM | 42.5 nM |  | 
UUAGAUAUGACAGAUACCAGCGUGUUAUAAAACAUGAGGAUCACCCAUGUAGUGAUCGAGCGCCCUUGGCAGCUGGUGUGUUUGG [7.R] | 69.7 nM | 175 nM | 148 nM |  | 
UUAGAUAUGACGGAUACCAGCGUGUUGUAGAACAUGAGGAUCACCCAUGUAGUGAUCAUGCGCCCUUGGCAGCUGGUAUGUUUGG [7.U] | 178 nM | 386 nM | 566 nM |  | 
UUAUUUAACGGAAGGAGCGCGGAUAAUAAAGUGGGUAAACAUGAGGAUCACCCAUGUAAACCGCAGGUAGGUCGCCGAUAUUUAU [AstrosEXyARgB#6] | 43.9 nM | 77.6 nM | 42.6 nM | 56.5 nM | 72.9 nM
UUCAGCUAGUCGGCCGCCACUACAUGAGGAUCACCCAUGUCGGUCCUCACUGCUUCGGCAGUGUGUAGGACCGGGACUAGCUGAG | 62 nM | 93.6 nM |  |  | 91.3 nM
UUCAGCUAGUCGGCCGCCACUACAUGAGGAUCACCCAUGUUCCUAAAACACUGCUUCGGCAGUGGUAGGACCGGGACUAGCUGAG | 41.1 nM | 48.5 nM | 256 nM | 31.7 nM | 42 nM
UUCAGCUAGUCGGCCGCCACUACUUGAGGAUCACCCAAGUAGGUCCACACUGCUUCGGCAGUGAGUAGGACCGGGACUAGCUGAG | 13.7 nM | 13.5 nM | 35.3 nM | 14.7 nM | 11.5 nM
UUCAGCUAGUCGGCCGCCACUACUUGAGGAUCACCCAGGUAAUCCUAACACUGCUUCGGCAGUGGUAGGACCGGGACUAGCUGAG | 24 nM | 21.6 nM | 103 nM | 19 nM | 24.5 nM
UUCAGCUAGUCGGCCGCCACUGCAUGAGGAUCACCCAUGUAGGUCCACACUGCUUCGGCAGUGAGUAGGACCGGGACUAGCUGAG | 11.4 nM | 12.9 nM | 13.7 nM | 9.41 nM | 10.8 nM
